# Results reported in US20260066079A1 (published 2026).
# T1: TL1A in human blood (endogenous) (human, UniProt O95150 72-251, limits assumed)
# T1 sequence (looked up): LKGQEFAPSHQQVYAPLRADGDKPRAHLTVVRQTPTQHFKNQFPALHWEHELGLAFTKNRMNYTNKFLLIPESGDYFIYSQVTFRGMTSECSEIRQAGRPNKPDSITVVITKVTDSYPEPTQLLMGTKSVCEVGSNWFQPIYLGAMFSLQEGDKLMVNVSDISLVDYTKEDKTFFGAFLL
# Target: T1, TL1A in human blood (endogenous)
# Experiment: cell-based or functional assay
% Inhibition at 1 nM Ig (inhibition of interferon gamma release in human blood),% Inhibition at 10 nM Ig (inhibition of interferon gamma release in human blood),Binder
51.3%,72.4%,"A147 (antibody, human IgG1, V domains shown) VH: QVQLVQSGAEVKKPGASVKVSCKASGFDIQDTYMHWVKQRPGQGLEWMGRIEPASGHIKYDPKFQGRVTMTRDTSTSTVYMELSSLRSEDTAVYYCARSGGLPDWWGQGTTVTVSS VL: EIVLTQSPGTLSLSPGERATLSCRASSSVSYMYWYQQKPGQAPRPLIYATSNLASGIPDRFSGSGSGTDFTLTISRLEPEDFAVYYCQQWEGNPRTFGGGTKLEIK"
48.6%,69.8%,"A213 (antibody, human IgG1, V domains shown) VH: QVQLVQSGAEVKKPGASVKVSCKASGFDIQDTYMHWVRQRPGQGLEWMGRIDPASGHTKYDPKFQVRVTITTDTSTSTVYMELSSLRSEDTAVYYCARSGGLPDVWGQGTTVTVSS VL: EIVLTQSPGTLSLSPGERATLSCRASSSVSYMYWYQQKPGQAPRPLIYATSNLASGIPDRFSGSGSGTDFTLTISRLEPEDFAVYYCQQWEGNPRTFGGGTKLEIK"
36.9%,63.2%,"A220 (antibody, human IgG1, V domains shown) VH: QVQLVQSGAEVKKPGASVKVSCKASGFDIQDTYMHWVKQRPGQGLEWMGRIDPASGHTKYDPKFQVRVTMTRDTSTSTAYLELSSLRSEDTAVYYCARSGGLPDVWGQGTTVTVSS VL: EIVLTQSPGTLSLSPGERATLSCRASSSVSYMYWYQQKPGQAPRPWIYATSNLASGIPDRFSGSGSGTDFTLTISRLEPEDFAVYYCQQWEGNPRTFGGGTKLEIK"
46%,72.2%,"A217 (antibody, human IgG1, V domains shown) VH: QVQLVQSGAEVKKPGASVKVSCKASGFDIQDTYMHWVKQRPGQGLEWMGRIDPASGHTKYDPKFQVRVTITRDTSTSTVYMELSSLRSEDTAVYYCARSGGLPDVWGQGTTVTVSS VL: EIVLTQSPGTLSLSPGERATLSCRASSSVSYMYWYQQKPGQAPRPLIYATSNLASGIPDRFSGSGSGTDFTLTISRLEPEDFAVYYCQQWEGNPRTFGGGTKLEIK"
59.8%,75.2%,"A219 (antibody, human IgG1, V domains shown) VH: QVQLVQSGAEVKKPGASVKVSCKASGFDIQDTYMHWVKQRPGQGLEWMGRIDPASGHTKYDPKFQVRVTITRDTSTSTVYLELSSLRSEDTAVYYCARSGGLPDVWGQGTTVTVSS VL: EIVLTQSPGTLSLSPGERATLSCRASSSVSYMYWYQQKPGQAPRPLIYATSNLASGIPDRFSGSGSGTDFTLTISRLEPEDFAVYYCQQWEGNPRTFGGGTKLEIK"
46.8%,71.2%,"A212 (antibody, human IgG1, V domains shown) VH: QVQLVQSGAEVKKPGASVKVSCKASGFDIQDTYMHWVRQRPGQGLEWIGRIDPASGHTKYDPKFQVRATITTDTSTSTAYLELSSLRSEDTAVYYCARSGGLPDVWGQGTTVTVSS VL: EIVLTQSPGTLSLSPGERATLSCRASSSVSYMYWYQQKPGQAPRPLIYATSNLASGIPDRFSGSGSGTDFTLTISRLEPEDFAVYYCQQWEGNPRTFGGGTKLEIK"
